Data taken from patent US20240376221A1.

Legend:
[1] = biological target: human OX40 with mouse CRD1 (human with mouse CRD1) (UniProt P43489); assay: flow cytometry, ExpiCHO-S cells with human OX40 carrying mouse CRD1
[2] = biological target: recombinant human OX40 (Acro Biosystems, cat. no. OXO-H5224) (human) (UniProt P43489); assay: BLI cross-block; competitor (immobilized 1st Ab): IgG1-CD134-11D4
[3] = biological target: recombinant human OX40 (Acro Biosystems, cat. no. OXO-H5224) (human) (UniProt P43489); assay: BLI cross-block; competitor (immobilized 1st Ab): IgG1-CD134-003
[4] = biological target: recombinant human OX40 (Acro Biosystems, cat. no. OXO-H5224) (human) (UniProt P43489); assay: BLI cross-block; competitor (immobilized 1st Ab): IgG1-CD134-SF2
[5] = biological target: recombinant human OX40 (Acro Biosystems, cat. no. OXO-H5224) (human) (UniProt P43489); assay: BLI cross-block; competitor (immobilized 1st Ab): IgG1-CD134-ABBV368
[6] = biological target: recombinant human OX40 (Acro Biosystems, cat. no. OXO-H5224) (human) (UniProt P43489); assay: BLI cross-block; competitor (immobilized 1st Ab): IgG1-CD134-IBI101
[7] = biological target: recombinant human OX40 (Acro Biosystems, cat. no. OXO-H5224) (human) (UniProt P43489); assay: BLI cross-block; competitor (immobilized 1st Ab): IgG1-CD134-A4453
[8] = biological target: recombinant human OX40 (Acro Biosystems, cat. no. OXO-H5224) (human) (UniProt P43489); assay: BLI cross-block; competitor (immobilized 1st Ab): IgG1-CD134-007
[9] = biological target: human OX40, cell surface-expressed (human) (UniProt P43489); assay: flow cytometry, ExpiCHO-S cells with human OX40
human OX40, cell surface-expressed (human), sequence (P43489 29-277): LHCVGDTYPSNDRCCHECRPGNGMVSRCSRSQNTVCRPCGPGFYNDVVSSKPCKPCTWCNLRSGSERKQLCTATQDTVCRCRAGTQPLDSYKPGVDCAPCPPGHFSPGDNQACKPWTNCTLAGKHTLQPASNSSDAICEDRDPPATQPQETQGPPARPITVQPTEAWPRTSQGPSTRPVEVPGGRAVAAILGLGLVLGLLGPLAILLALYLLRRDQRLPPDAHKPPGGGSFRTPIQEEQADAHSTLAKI

[10] = biological target: recombinant human OX40 (Acro Biosystems, cat. no. OXO-H5224) (human) (UniProt P43489); assay: BLI cross-block; competitor (immobilized 1st Ab): IgG1-CD134-Hu106
[11] = biological target: recombinant human OX40 (Acro Biosystems, cat. no. OXO-H5224) (human) (UniProt P43489); assay: BLI cross-block; competitor (immobilized 1st Ab): IgG1-CD134-h3C8
[12] = biological target: recombinant human OX40 (Acro Biosystems, cat. no. OXO-H5224) (human) (UniProt P43489); assay: BLI cross-block; competitor (immobilized 1st Ab): IgG1-CD134-012
[13] = biological target: recombinant cynomolgus monkey OX40 (Acro Biosystems, cat. no. OXO-C5220) (cynomolgus monkey); assay: BLI, Ab on AHC sensor, OX40 analyte
recombinant cynomolgus monkey OX40 (Acro Biosystems, cat. no. OXO-C5220) (cynomolgus monkey), sequence (P43489 other isoform, or with tags, fused parts or gaps limits assumed): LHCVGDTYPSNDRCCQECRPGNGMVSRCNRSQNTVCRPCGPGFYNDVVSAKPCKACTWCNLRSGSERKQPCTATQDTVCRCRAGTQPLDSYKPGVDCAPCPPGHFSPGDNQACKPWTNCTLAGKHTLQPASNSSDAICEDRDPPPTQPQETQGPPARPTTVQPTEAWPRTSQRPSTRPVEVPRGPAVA

[14] = biological target: recombinant human OX40 (Acro Biosystems, cat. no. OXO-H5224) (human) (UniProt P43489); assay: BLI, Ab on AHC sensor, OX40 analyte
[15] = biological target: recombinant human OX40 (Acro Biosystems, cat. no. OXO-H5224) (human) (UniProt P43489); assay: BLI cross-block; competitor (immobilized 1st Ab): IgG1-CD134-RG7888
[16] = biological target: recombinant human OX40 (Acro Biosystems, cat. no. OXO-H5224) (human) (UniProt P43489); assay: BLI cross-block; competitor (immobilized 1st Ab): IgG1-CD134-GBR830
[17] = biological target: human OX40 with mouse CRD4 (human with mouse CRD4) (UniProt P43489); assay: flow cytometry, ExpiCHO-S cells with human OX40 carrying mouse CRD4
human OX40 with mouse CRD4 (human with mouse CRD4), sequence (P43489 other isoform, or with tags, fused parts or gaps limits assumed): as the sequence (P43489 29-277) above, with D109N, A122S, H125Q, L127R, Q128H, N132D, S134L, I137V counted along it

[18] = biological target: recombinant human OX40 (Acro Biosystems, cat. no. OXO-H5224) (human) (UniProt P43489); assay: BLI cross-block; competitor (immobilized 1st Ab): IgG1-CD134-INCAGN1949
[19] = biological target: recombinant human OX40 (Acro Biosystems, cat. no. OXO-H5224) (human) (UniProt P43489); assay: BLI cross-block; competitor (immobilized 1st Ab): IgG1-CD134-49B4-RRE
[20] = biological target: recombinant human OX40 (Acro Biosystems, cat. no. OXO-H5224) (human) (UniProt P43489); assay: BLI cross-block; competitor (immobilized 1st Ab): IgG1-CD134-003-HC6LC2-RR
[21] = biological target: recombinant human OX40 (Acro Biosystems, cat. no. OXO-H5224) (human) (UniProt P43489); assay: BLI cross-block; competitor (immobilized 1st Ab): IgG1-CD134-MEDI0562
[22] = biological target: cynomolgus monkey OX40, cell surface-expressed (cynomolgus monkey); assay: flow cytometry, HEK293F cells with cynomolgus monkey OX40
cynomolgus monkey OX40, cell surface-expressed (cynomolgus monkey), sequence (P43489 other isoform, or with tags, fused parts or gaps limits assumed): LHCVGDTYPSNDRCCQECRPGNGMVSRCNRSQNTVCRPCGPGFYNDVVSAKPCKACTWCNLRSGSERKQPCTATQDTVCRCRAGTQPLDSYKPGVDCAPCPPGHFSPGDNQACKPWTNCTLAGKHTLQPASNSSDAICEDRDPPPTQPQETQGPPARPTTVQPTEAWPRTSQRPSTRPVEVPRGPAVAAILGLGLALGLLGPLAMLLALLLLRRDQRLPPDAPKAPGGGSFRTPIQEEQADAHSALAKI

[23] = biological target: human OX40, cell surface-expressed (human) (UniProt P43489); assay: flow cytometry, HEK293F cells with human OX40
[24] = biological target: human OX40 with mouse CRD3 (human with mouse CRD3) (UniProt P43489); assay: flow cytometry, ExpiCHO-S cells with human OX40 carrying mouse CRD3
human OX40 with mouse CRD3 (human with mouse CRD3), sequence (P43489 other isoform, or with tags, fused parts or gaps limits assumed): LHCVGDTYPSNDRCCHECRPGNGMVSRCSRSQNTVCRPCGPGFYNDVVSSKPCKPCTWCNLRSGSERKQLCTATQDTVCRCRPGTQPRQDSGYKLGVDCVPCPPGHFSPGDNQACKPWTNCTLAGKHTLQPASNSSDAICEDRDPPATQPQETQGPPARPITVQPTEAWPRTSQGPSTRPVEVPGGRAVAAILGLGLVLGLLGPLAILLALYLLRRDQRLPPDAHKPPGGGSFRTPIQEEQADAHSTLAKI

[25] = biological target: human OX40 with mouse CRD2 (human with mouse CRD2) (UniProt P43489); assay: flow cytometry, ExpiCHO-S cells with human OX40 carrying mouse CRD2
human OX40 with mouse CRD2 (human with mouse CRD2), sequence (P43489 other isoform, or with tags, fused parts or gaps limits assumed): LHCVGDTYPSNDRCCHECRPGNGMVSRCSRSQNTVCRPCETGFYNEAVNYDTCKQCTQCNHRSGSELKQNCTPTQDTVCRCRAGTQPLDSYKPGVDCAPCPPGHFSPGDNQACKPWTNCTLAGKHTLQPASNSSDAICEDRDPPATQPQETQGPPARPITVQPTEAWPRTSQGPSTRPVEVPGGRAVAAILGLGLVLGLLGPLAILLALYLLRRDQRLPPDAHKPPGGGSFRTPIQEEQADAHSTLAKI

recombinant human OX40 (Acro Biosystems, cat. no. OXO-H5224) (human), sequence (P43489 29-216 limits assumed): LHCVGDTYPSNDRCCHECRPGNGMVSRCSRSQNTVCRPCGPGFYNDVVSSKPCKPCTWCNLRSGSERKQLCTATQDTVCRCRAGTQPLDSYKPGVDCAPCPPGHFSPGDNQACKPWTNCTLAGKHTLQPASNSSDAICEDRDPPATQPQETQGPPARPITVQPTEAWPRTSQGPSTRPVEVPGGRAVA
human OX40 with mouse CRD1 (human with mouse CRD1), sequence (P43489 other isoform, or with tags, fused parts or gaps limits assumed): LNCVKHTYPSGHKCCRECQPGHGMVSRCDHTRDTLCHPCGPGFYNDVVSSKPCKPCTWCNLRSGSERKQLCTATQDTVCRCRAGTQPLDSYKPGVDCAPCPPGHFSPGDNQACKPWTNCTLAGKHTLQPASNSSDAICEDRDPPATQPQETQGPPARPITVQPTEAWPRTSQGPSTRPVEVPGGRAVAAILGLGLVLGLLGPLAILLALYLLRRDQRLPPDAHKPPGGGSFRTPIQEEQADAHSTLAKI

Row | Binder | EC50 (read off the curve) [1] [µg/mL] | corrected association response [2] [nm] | corrected association response [3] [nm] | corrected association response [4] [nm] | corrected association response [5] [nm] | corrected association response [6] [nm] | corrected association response [7] [nm] | corrected association response [8] [nm] | EC50 (read off the curve) [9] [µg/mL] | corrected association response [10] [nm] | corrected association response [11] [nm] | corrected association response [12] [nm] | Kd [14] [nM] | koff [14] [s⁻¹] | kon [14] [M⁻¹ s⁻¹] | corrected association response [15] [nm] | corrected association response [16] [nm] | EC50 (read off the curve) [17] [µg/mL] | corrected association response [18] [nm] | corrected association response [19] [nm] | other results
1 | IgG1-CD134-ABBV368 (antibody, INN chains, looked up, V domains shown, IgG1) VH: EVQLVESGGGLVQPGGSLRLSCAASGFTFSRYGMSWVRQAPGKGLELVATINSNGGRTYYPDSVKGRFTISRDNAKNSLYLQMNSLRAEDTAVYYCAREGITTAYAMDYWGQGTTVTVSS VL: DIVMTQSPDSLAVSLGERATINCKASQSVDYDGDSYMHWYQQKPGQPPKLLIYAASILESGVPDRFSGSGSGTDFTLTISSLQAEDVAVYYCQQSNEDPRTFGGGTKVEIK | 0.005 | 0.13 | 1.27 | 0.04 | -0.04 | 0.01 | 0.29 | 0 | 0.005 | 0 | -0.03 | 0.87 | 32 | 0.017 | 510000 | 0.02 | 0.01 | 0.005 | 0.01 | 0 | Kd [13]: 82 nM; koff [13]: 0.019 s⁻¹; kon [13]: 230000 M⁻¹ s⁻¹; corrected association response [20]: 1.68 nm; corrected association response [21]: -0.01 nm; EC50 (read off the curve) [22]: 0.05 µg/mL; EC50 (read off the curve) [23]: 0.05 µg/mL
2 | IgG1-CD134-GBR830 (antibody, INN chains, looked up, V domains shown, IgG1) VH: QVTLKESGPALVKPTQTLTLTCSFSGFSLSTSGMGVGWIRQPPGKALEWIAHIWWDDDKYYNTALKTRLTISKDTSKNQVVLTMTNMDPVDTATYYCARIDWDGFAYWGQGTLVTVSS VL: EIVLTQSPATLSLSPGERATLSCRASSSVSYMHWYQQKPGQAPRPWIYATSNRATGIPARFSGSGSGTDYTLTISSLEPEDFAVYYCQQWSSNPWTFGQGTKVEIK | 0.06 | 0.13 | 0.97 | 0.19 | -0.01 | 0.02 | 0.28 | 0.07 | 0.05 | 0.02 | -0.02 | 0.84 | 67 | 0.0077 | 120000 | 0.61 | 0.01 | 0.06 | 0.01 | 0 | EC50 (read off the curve) [24]: 0.06 µg/mL; corrected association response [20]: 1.08 nm; corrected association response [21]: 0.33 nm; EC50 (read off the curve) [23]: 0.06 µg/mL
3 | IgG1-CD134-MEDI0562 (antibody, INN chains, looked up, V domains shown, IgG1) VH: QVQLQESGPGLVKPSQTLSLTCAVYGGSFSSGYWNWIRKHPGKGLEYIGYISYNGITYHNPSLKSRITINRDTSKNQYSLQLNSVTPEDTAVYYCARYKYDYDGGHAMDYWGQGTLVTVSS VL: DIQMTQSPSSLSASVGDRVTITCRASQDISNYLNWYQQKPGKAPKLLIYYTSKLHSGVPSRFSGSGSGTDYTLTISSLQPEDFATYYCQQGSALPWTFGQGTKVEIK | 0.07 | 0.14 | 1.39 | 0.01 | -0.02 | 0.28 | 0.41 | 1.14 | 0.07 | 0.69 | 0.54 | 0.82 | 15 | 0.0022 | 150000 | 0 | 0.32 | 0.06 | 0 | 0.15 | Kd [13]: 17 nM; koff [13]: 0.0018 s⁻¹; kon [13]: 110000 M⁻¹ s⁻¹; corrected association response [20]: 1.73 nm; corrected association response [21]: 0 nm; EC50 (read off the curve) [22]: 0.1 µg/mL; EC50 (read off the curve) [23]: 0.06 µg/mL; EC50 (read off the curve) [25]: 0.06 µg/mL
